Assays:
LRP = target: T1, LRP (Homo sapiens, UniProt Q07954); test: 125I-Mesd binding to U87 cells and aortic smooth muscle cells expressing abundant LRP; details: 125I-Mesd 5 nM, 4 hours at 4° C.
T1 construct: U87 cells and SMC express abundant LRP; endogenous in cells; host or cells: U87 glioblastoma cells; human aortic smooth muscle cells
Description: (§1) Cells (2×10^5) were seeded into 12-well dishes 1 day prior to assay. Ligand-binding buffer (minimal Eagle's medium containing 0.6% BSA with a different concentration of radioligand, 0.6 ml/well) was added to cell monolayers, in the absence or the presence of 500 nM unlabeled RAP or 500 nM unlabeled Mesd, followed with incubation for 0-4 hours at 4° C. Thereafter, overlying buffer containing unbound ligand was removed, and cell monolayers were washed and lysed in low-SDS lysis buffer (62.5 mM Tris-HCl pH 6.8, 0.2% SDS, 10% v/glycerol) and counted.
To determine whether Mesd binds to other members of the LDLR family, ^125I-Mesd binding analysis was performed with four groups of cells expressing different members of the LDLR family (FIG. 2). In the first experiment, HEK293 cells were transiently transfected with cDNAs for the LDLR, LRP5, LRP6 or empty pcDNA3 vector. […]

LRP6 = target: T2, LRP6 (Homo sapiens, UniProt O75581); test: 125I-RAP binding to LRP6-transduced HT1080 cells; details: 500 nM unlabeled Mesd
T2 construct: expressed in transfected cells; host or cells: human HT1080 cells, retroviral vector pLNCX2
T2 sequence (O75581 20-1613): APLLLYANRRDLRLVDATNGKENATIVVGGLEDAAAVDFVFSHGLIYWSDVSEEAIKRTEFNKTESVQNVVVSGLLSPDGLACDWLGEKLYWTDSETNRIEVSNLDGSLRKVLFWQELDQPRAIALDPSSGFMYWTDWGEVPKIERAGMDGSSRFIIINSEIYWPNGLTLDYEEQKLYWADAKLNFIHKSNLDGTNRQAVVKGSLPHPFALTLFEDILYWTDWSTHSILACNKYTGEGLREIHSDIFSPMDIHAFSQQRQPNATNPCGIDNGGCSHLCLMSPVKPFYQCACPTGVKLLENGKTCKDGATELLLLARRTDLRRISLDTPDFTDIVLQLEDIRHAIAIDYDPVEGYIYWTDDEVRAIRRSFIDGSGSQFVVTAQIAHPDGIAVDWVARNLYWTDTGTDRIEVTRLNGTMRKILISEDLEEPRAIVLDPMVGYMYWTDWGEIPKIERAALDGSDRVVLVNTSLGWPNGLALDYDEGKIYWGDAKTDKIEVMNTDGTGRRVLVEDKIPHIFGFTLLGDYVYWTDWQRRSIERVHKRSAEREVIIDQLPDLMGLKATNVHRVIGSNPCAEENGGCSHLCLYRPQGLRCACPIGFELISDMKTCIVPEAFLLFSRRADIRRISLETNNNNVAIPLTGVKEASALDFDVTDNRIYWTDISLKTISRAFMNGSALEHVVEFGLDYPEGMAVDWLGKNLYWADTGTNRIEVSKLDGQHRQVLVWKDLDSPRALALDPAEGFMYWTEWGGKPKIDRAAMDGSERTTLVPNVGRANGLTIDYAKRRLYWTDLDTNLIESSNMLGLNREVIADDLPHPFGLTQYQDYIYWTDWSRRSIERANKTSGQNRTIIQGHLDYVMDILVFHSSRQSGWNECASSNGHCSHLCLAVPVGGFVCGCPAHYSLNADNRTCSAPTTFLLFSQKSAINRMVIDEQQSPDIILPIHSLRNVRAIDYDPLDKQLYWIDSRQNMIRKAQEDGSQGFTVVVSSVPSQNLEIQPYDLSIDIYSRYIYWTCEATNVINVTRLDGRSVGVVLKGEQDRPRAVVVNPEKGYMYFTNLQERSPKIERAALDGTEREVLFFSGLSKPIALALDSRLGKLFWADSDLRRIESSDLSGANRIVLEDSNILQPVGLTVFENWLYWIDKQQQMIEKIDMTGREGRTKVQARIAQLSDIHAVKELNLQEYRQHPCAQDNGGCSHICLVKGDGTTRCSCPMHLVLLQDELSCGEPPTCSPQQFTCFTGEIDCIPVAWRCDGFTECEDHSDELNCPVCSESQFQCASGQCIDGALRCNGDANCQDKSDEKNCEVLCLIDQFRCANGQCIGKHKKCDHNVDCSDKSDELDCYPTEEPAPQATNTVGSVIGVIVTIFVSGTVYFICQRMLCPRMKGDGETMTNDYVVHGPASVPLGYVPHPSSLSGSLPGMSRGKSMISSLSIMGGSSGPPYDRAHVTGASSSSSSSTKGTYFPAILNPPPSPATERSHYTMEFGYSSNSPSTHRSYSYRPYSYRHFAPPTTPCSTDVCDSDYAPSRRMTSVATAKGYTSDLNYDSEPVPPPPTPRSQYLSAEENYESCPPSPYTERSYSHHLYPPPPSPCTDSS
Description: as §1
Receptor-associated protein (RAP) binds with high affinity to LRP, megalin, VLDLR and apoER2, and with a lower affinity to the LDLR (Bu, G., Int. Rev. Cytol. 209, 79-116. 2001). To determine whether RAP and Mesd bind to identical, overlapping, or different sites on the receptors, we performed binding and competition analysis of these two chaperones with HT1080 cells stably expressing LRP6.
In FIG. 8A, binding of ^125I-RAP (5 nM) to LRP6-transduced HT1080 cells and the control cells was carried out for 4 hours at 4° C. in the absence (total) or presence of 500 nM RAP, or 500 nM Mesd. In FIG. 8B, binding of^125I-Mesd (5 nM) to LRP6-transduced HT1080 cells was carried out for 2 hours at 4° C. in the absence (total) or presence of various concentrations of RAP or 500 nM Mesd. […]

B1: Mesd: Recombinant full-length mouse Mesd expressed in E. coli, N-terminal polyhistidine tail, lacking the signal peptide (protein)
chain: ADTPGEATPPPRKKKDIRDYNDADMARLLEQWEKDDDIEEGDLPEHKRPSAPIDFSKLDPGKPESILKMTKKGKTLMMFVTVSGNPTEKETEEITSLWQGSLFNANYDVQRFIVGSDRAIFMLRDGSYAWEIKDFLVSQDRCAEVTLEGQMYPGKGGGSKEKNKTKPEKAKKKEGDRKPRASKEDNRAGSRREDL
modifications: left off: small tags and cut ends
notes: Recombinant full-length mouse Mesd expressed in E. coli, N-terminal polyhistidine tail, lacking the signal peptide
Specific Mesd binding to U87 or SMC (LRP): minimal
Effect of excess unlabeled Mesd on the LRP6-dependent increase of 125I-RAP binding (LRP6): abolished

Reference: US8198236B2, “Methods and compositions for the treatment of cancer” (Washington University, priority 2007, dated 2012)
